The target in the assay is HLA-A*02:01. Description: IEDB peptide-MHC binding, cellular MHC/competitive/fluorescence; ≥ and ≤ were set here for values at or beyond the usual limits of such assays. Conditions: source organism: Vaccinia virus WR.
DLFPKQTIQT registered an IC50 of 12.9 µM.

On to DLSKLSKDV, for which the IC50 was found to be 6.36 µM.

For DLSKLSKDVV, the IC50 is not below 70 µM.

Take DLVKSYSLI: the IC50 is not below 70 µM.

Regarding DLVVLGKVT, the IC50 worked out at 53.3 µM.

Regarding DLVVLGKVTI, the IC50 amounted to 10.9 µM. This IC50 is about 4.9-fold lower than that of the sequence before.

In the case of DLYNGGRIDM, the IC50 was 29.5 µM. Compared with the last sequence, the IC50 is about 2.7-fold higher.

In turn, DMIHNVIDDV displayed an IC50 of 19.8 µM.

Sequence DMLNIMNKL returned an IC50 of 5.12 µM.

In turn, DMLVNRMQRI registered an IC50 of 11.7 µM.

In turn, DMPSLSNGL gave an IC50 of 47.2 µM.

On to DMPSLSNGLI, for which the IC50 came out at 43 µM.

Take DQSIKIGDI: the IC50 is not below 70 µM.

DQYKFHKLL gave an IC50 of 16 µM.

The sequence DTFVSSVREV yielded an IC50 of 5.08 µM. This IC50 lies about 3.1-fold lower than the previous one.

In the case of DTQQHPIVV, the IC50 stood at 13.9 µM.

The sequence DTQQHPIVVL came in with an IC50 not below 70 µM.

For DTSCDFESVT, the IC50 is not below 70 µM.

DVEDLLSYYV: the IC50 was 5.16 µM.

Sequence DVELFIKAL returned an IC50 not below 70 µM.

Consider DVGYEVIGA, for which the IC50 was 32.3 µM.

For the sequence DVTAKSSFV, the IC50 was determined as 8.56 µM.

For EAAITDAAVA, the IC50 was 26.3 µM. Against the preceding sequence, the IC50 is about 3.1-fold higher.

Sequence EATYHIIIV had an IC50 of 11 µM.

EAVKDKNWT: the IC50 worked out at 38.7 µM.

EAVKDKNWTV came in with an IC50 of 14.8 µM.

Sequence EIEEHMRQT displayed an IC50 of 39 µM.

Take EIFIRYGDA: the IC50 stood at 30.5 µM.

EILTVKRPLL showed an IC50 not below 70 µM.

Turning to EINATDIII, the IC50 came to 17.1 µM.

Regarding EINNELELV, the IC50 stood at 8.27 µM.

EIPTRTLDT: the IC50 is 5.98 µM. The IC50 values of the last two sequences are within 1.5-fold of each other.

The sequence EIPTRTLDTA displayed an IC50 of 59 µM.

Sequence EIRDQYITA returned an IC50 not below 70 µM.

EITELVVEYM gave an IC50 of 35.6 µM.

Sequence ELDTLAAEI came in with an IC50 of 9.53 µM.

Regarding ELEEMVDKGT, the IC50 is not below 70 µM.

For ELEPSLATFI, the IC50 was 11.2 µM.

In the case of ELFIKALSDA, the IC50 was 10.9 µM.

ELIAFSSGT returned a concentration for half-maximal inhibition (IC50) of 5.34 µM.

The sequence ELKTQSPDVL yielded an IC50 of 61 µM.

In the case of ELMPIRTDT, the 50% inhibitory concentration (IC50) was not below 70 µM.

ELMPIRTDTT: the IC50 worked out at 11.7 µM.

ELNLSKFMM returned an IC50 of 7 µM.

For the sequence ELPYDENGI, the IC50 stood at 8.48 µM. The IC50 values of the last two sequences are within 1.5-fold of each other.

With ELQKFSFKIA, the IC50 was not below 70 µM.

On to ELTASGGKV, for which the IC50 is 49.8 µM.

For ELTASGGKVL, the IC50 is not below 70 µM.

ELTTLSRHI: the IC50 was determined as 18.6 µM.

ELVFIKPPL gave an IC50 of 28 µM.

On to ELVNLIQAKT, for which the IC50 is not below 70 µM.

As for EQEIESLEA, the IC50 came to 26.3 µM.

EQEIESLEAT: the IC50 stood at 42.7 µM.

In turn, EQRSTAYEI had an IC50 of 8.92 µM.

Consider EQTSVFSAT, for which the IC50 came to 16.9 µM.

In turn, EQTSVFSATV registered an IC50 of 28.6 µM.

The sequence ETDRENAII gave an IC50 of 67.3 µM.

Take ETIGNQLYLT: the IC50 stood at 14.6 µM.

Regarding ETMPCVKKKA, the IC50 is not below 70 µM.

On to ETSFIFIET, for which the IC50 came to 8.82 µM. In other words, the single-digit micromolar range.

ETSFNDKQKV registered an IC50 not below 70 µM.

On to ETVSTIDGRI, for which the IC50 was not below 70 µM.

Consider EVASTHDWST, for which the IC50 was not below 70 µM.

Regarding EVFHCMDIL, the IC50 amounted to 12 µM.

In turn, EVFHCMDILT registered an IC50 of 14.8 µM.

With EVFINDNGI, the IC50 was not below 70 µM.

The sequence EVFINDNGIM showed an IC50 not below 70 µM.

EVFNREYNNV displayed an IC50 of 13.2 µM.

In turn, EVRKYFCVKT yielded an IC50 of 23.2 µM.

EVSINVDST registered an IC50 not below 70 µM.

In turn, EVSYFTNKRT gave a concentration for half-maximal inhibition (IC50) of 66.1 µM. This lies in the double-digit micromolar range.

The sequence EVVANVIGL came in with an IC50 of 12.2 µM.

Consider EVVVFGEAV, for which the IC50 is 13.4 µM.

With FASGNSIDDI, the IC50 came to 9.21 µM.

The sequence FIKPPLITLT displayed an IC50 not below 70 µM.

For FINDRMKKDI, the IC50 was not below 70 µM.

With FINKLNGAM, the IC50 came to 57.8 µM.

Take FIVISPMGKL: the IC50 came out at 20 µM. This IC50 is about 2.9-fold lower than that of the sequence before.

FLDDSNKRKV returned an IC50 of 8.41 µM.

The sequence FTNKRTRGPL returned an IC50 of 16.2 µM.

Regarding FTNLLSKNT, the IC50 stood at 13.1 µM.

The sequence FTVTNKEGV displayed an IC50 of 10.3 µM. This IC50 and that of the sequence before are within 1.5-fold of each other.

FVFYKPKHST showed an IC50 not below 70 µM.

With FVKRLGPGT, the IC50 worked out at 39.7 µM.

For the sequence GAIKCEGLDV, the IC50 was determined as 49 µM. The IC50 values of the last two sequences are within 1.5-fold of each other.

Sequence GAIYKLGSSI registered an IC50 of 36.6 µM.

The sequence GAMVEYVST registered an IC50 of 24.8 µM.

In the case of GASYISCTA, the IC50 is 7.35 µM.

GATLYRFKHI returned an IC50 not below 70 µM.

GIAHLLEHLL displayed an IC50 of 7.4 µM.

For GIKEDETVST, the IC50 is 41.7 µM. This IC50 lies about 5.6-fold higher than the previous one.

In the case of GILSNYVKT, the IC50 is not below 70 µM.

GINQEDGIII: the IC50 is not below 70 µM.

The sequence GIPITIRVT displayed an IC50 of 18.7 µM.

A word on the IC50: it is the concentration at which inhibition is half-maximal. Read a low IC50 as inhibition by little substance.

These data come from the Immune Epitope Database (IEDB).
